Source: PMC4080450, “The pseudo GTPase CENP-M drives human kinetochore assembly” (eLife, 2014)

Molecular target: T1, CENP-H/His-CENP-K complex (human, UniProt Q9H3R5 1-247; Q9BS16 1-269)
T1 construct: human CENP-H, without any tag; human CENP-K; also called CENP-H/K complex; source: Tnao38 insect cells, co-expressed, purified; not shown: His6, N-terminal, kept
Experiment: SEC; analytical SEC co-elution (Superdex200 5/150 or Superose6 5/150), 4°C; proteins mixed in 50 µl, at least 2 hr on ice; SEC buffer with 150 mM NaCl
Conditions: both partners purified

T1 sequence (Q9H3R5 whole entry, chain 1 of 2): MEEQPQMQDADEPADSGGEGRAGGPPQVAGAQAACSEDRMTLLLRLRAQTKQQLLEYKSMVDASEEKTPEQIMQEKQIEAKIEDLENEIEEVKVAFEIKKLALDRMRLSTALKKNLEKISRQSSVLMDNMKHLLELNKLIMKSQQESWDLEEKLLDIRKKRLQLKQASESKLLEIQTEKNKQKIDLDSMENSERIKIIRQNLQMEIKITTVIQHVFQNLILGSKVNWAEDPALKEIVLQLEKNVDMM
T1 sequence (Q9BS16 whole entry, chain 2 of 2): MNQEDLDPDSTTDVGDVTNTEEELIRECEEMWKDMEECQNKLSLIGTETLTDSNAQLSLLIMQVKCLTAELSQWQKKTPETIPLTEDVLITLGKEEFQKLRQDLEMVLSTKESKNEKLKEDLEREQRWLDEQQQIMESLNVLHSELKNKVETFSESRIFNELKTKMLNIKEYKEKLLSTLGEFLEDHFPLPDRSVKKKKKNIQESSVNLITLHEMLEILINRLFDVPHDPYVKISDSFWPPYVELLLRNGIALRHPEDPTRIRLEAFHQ

B1: His-CENP-I^57–281 (domain or fragment, human, UniProt Q92674 57-281, looked up)
chain: ADDQAEEDALQMAVGYFEKGPIKASQNKDKTLEKHLKTVENVAWKNGLASEEIDILLNIALSGKFGNAVNTRILKCMIPATVISEDSVVKAVSWLCVGKCSGSTKVLFYRWLVAMFDFIDRKEQINLLYGFFFASLQDDALCPYVCHLLYLLTKKENVKPFRVRKLLDLQAKMGMQPHLQALLSLYKFFAPALISVSLPVRKKIYFKNSENLWKTALLAVKQRNR
notes: CENP-I residues 57-281; no methods paragraph tells how this fragment was made; also called N-terminal region of CENP-I; I^N; source: recombinant, expressed in a soluble form
B1: binds.
